Reference: publication PMC3208551

Legend:
ActRII-ECD (mouse) = assay: SPR; Biacore 2000; receptor ECDs immobilised on a CM5 chip by primary amine coupling, ligands flowed over; at least five concentrations plus zero; global 1:1 Langmuir binding with mass transfer, KD calculated as koff/kon
ActRII-ECD (mouse), sequence (P27038 whole entry, the tested form may be a part): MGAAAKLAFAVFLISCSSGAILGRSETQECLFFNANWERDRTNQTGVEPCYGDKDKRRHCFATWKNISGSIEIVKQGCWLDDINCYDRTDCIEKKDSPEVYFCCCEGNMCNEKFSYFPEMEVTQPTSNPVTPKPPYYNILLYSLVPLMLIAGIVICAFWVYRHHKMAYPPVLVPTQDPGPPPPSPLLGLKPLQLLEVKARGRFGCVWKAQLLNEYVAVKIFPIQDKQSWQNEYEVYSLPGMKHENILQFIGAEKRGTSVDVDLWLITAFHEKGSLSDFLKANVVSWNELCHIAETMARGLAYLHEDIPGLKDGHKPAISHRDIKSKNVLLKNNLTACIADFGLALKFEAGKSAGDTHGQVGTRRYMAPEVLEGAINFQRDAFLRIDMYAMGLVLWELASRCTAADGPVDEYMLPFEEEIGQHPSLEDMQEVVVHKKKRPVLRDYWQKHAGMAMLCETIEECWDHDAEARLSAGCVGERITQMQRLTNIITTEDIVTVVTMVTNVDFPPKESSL

Row | Kd (ActRII-ECD (mouse)) [nM] | koff (ActRII-ECD (mouse)) [s⁻¹] | kon (ActRII-ECD (mouse)) [M⁻¹ s⁻¹] | Smad1 luciferase reporter in C2C12 cells, 30 ng/ml ligand with 30, 100 and 300 ng/ml Noggin (% of signaling levels) (AB212 (BBBBBA) (human)) | Molecule
1 | 36.8 | 0.0405 | 1.1e+06 | – | BMP-2 (BBBBBB) (from UniProt P12643 283-396) (ligand)
2 | – | – | – | 75 | Noggin (natural protein) QHYLHIRPAPSDNLPLVDLIEHPDPIFDPKEKDLNETLLRSLLGGHYDPGFMATSPPEDRPGGGGGAAGGAEDLAELDQLLRQRPSGAMPSEIKGLEFSEGLAQGKKQRLSKKLRRKLQMWLWSQTFCPVLYAWNDLGSRFWPRYVKVGSCFSKRSCSVPEGMVCKPSKSVHLTVLRWRCQRRGGQRCGWIPIQYPIISECKCSC
3 | 0.203 | 0.000716 | 3.52e+06 | – | Activin-βA (AAAAAA) (ligand) GLECDGKVNICCKKQFFVSFKDIGWNDWIIAPSGYHANYCEGECPSHIAGTSGSSLSFHSTVINHYRMRGHSPFANLKSCCVPTKLRPMSMLYYDDGQNIIKKDIQNMIVEECGCS
